For experiment [1], the target named is human PlGF-1 comprising amino acids 1-137 produced in human embryonic kidney cells (human) (UniProt P49763). Kind of experiment: Format 2 …, capture MAb264, detection Pb264; sFlt-1 2300 pmol/L (ratio 75).
Experiment [2] has the same target. The experiment in a line: Format 1 …, capture 2-826-335, detection 1-255-713; sFlt-1 3067 pmol/L (ratio 100).
Experiment [3] has the same target. Kind of experiment: Format 3 Quantikine ELISA, capture MAb264, detection Pb264; sFlt-1 77 pmol/L (ratio 2.5). (An ELISA detects its analyte on a solid surface through an enzyme-linked reagent.)
For experiment [4] the target is unchanged. Kind of experiment: Format 2 …, capture MAb264, detection Pb264; sFlt-1 3067 pmol/L (ratio 100).
Experiment [5] shares this target. Kind of experiment: Format 1 …, capture 2-826-335, detection 1-255-713; sFlt-1 307 pmol/L (ratio 10).
The target is the same in experiment [6]. The experiment in a line: Format 3 Quantikine ELISA, capture MAb264, detection Pb264; sFlt-1 4600 pmol/L (ratio 150).
For experiment [7], the target named is T1, human PlGF-1 fragment (comprising amino acids 17-131) produced in human embryonic kidney cells (human, UniProt P49763 35-221).
T1 sequence: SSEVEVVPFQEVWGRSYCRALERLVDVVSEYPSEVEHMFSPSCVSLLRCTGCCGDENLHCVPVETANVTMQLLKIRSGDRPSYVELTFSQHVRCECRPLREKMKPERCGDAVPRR
Kind of experiment: … sandwich, capture MAb826, detection pAb264; antigen 1500 pg/mL.

Experiment [8] concerns the target T2, CHO human PlGF-1 fragment (comprising amino acids 17-131; ATCC PTA-8540) (human, UniProt P49763 35-221).
T2 sequence: T1 sequence
The experiment is described as above.

Experiment [9] deals with T3, CHO human PlGF-1 comprising amino acids 1-137 (human PlGF-1-His (1-131), CHO 6305) (human, UniProt P49763 19-221, N-glycans at N21 (completely glycosylated) and N89 (partially glycosylated)).
T3 construct: Mature human PlGF-1 with 6xHis tag (137 amino acids); also called CHO (1-137)
T3 sequence: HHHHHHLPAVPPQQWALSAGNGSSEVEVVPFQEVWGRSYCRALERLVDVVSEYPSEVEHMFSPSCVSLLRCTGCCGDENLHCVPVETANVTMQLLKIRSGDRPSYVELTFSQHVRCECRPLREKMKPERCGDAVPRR
The experiment is described as above.

Experiment [10] deals with T1, human PlGF-1 fragment (comprising amino …). Kind of experiment: … sandwich, capture MAb255, detection MAb826; antigen 60 pg/mL. Summed up:
(§1)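 In a sandwich immunoassay, human PlGF-1 antigen preparations, including recombinant forms expressed in CHO cells, were tested at 0 to 1500 pg/mL. Magnetic microparticles carried a monoclonal anti-human PlGF-1 capture antibody, attached by passive coating and EDAC cross-linking, and a second monoclonal anti-human PlGF-1 antibody labeled with acridinium ester served for detection. At each antigen level, the chemiluminescent signal was read in relative light units (RLU).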

For experiment [11], the target named is T4, human PlGF-1 comprising amino acids 1-137 produced in human embryonic kidney cells (human, UniProt P49763 19-221).
T4 construct: Mature human PlGF-1 with 6xHis tag; also called HEK (1-137); full length HEK human PlGF-1 (1-137)
T4 sequence: T3 sequence
Described as above. Summed up:
as §1

Experiment [12] deals with T2, CHO human PlGF-1 fragment (comprising …). The description is as above. Summed up: as §1
The target of experiment [13] is T3, CHO human PlGF-1 comprising amino acids …. The experiment is described as above. The method, boiled down:
as §1

Experiment [14] has as its target T1, human PlGF-1 fragment (comprising amino …). The experiment in a line: … sandwich, capture MAb255, detection pAb264; antigen 750 pg/mL.
For experiment [15], the target named is T4, human PlGF-1 comprising amino acids …. Described as above.
Experiment [16] concerns the target T2, CHO human PlGF-1 fragment (comprising …). Described as above.
Experiment [17] concerns the target T3, CHO human PlGF-1 comprising amino acids …. Described as above.
Experiment [18] has as its target recombinant human PlGF-1 (comprising amino acids 1-131) expressed in E. coli (R&D Systems) (human) (UniProt P49763). The experiment in a line: … sandwich, capture MAb255, detection pAb264; antigen 15 pg/mL.

Regarding “native sFlt-1, isolated from human placental tissue (from UniProt P17948 27-687) (receptor)”, the % Inhibition (commonly how much of the control response was suppressed) in experiment [1] is 95%; in [2], 94.1%; in [3] it was 18.3%; in experiment [4], 95.7%; in [5] it was 80.7%; in [6], 81.6%. Besides, the PlGF-1 Measured in [1] stood at 39.7 pg/mL; in [2], 60.3 pg/mL; in experiment [3], 707 pg/mL; in experiment [4], 33.8 pg/mL; in [5], 197 pg/mL; in experiment [6] it was 159 pg/mL.

B1: monoclonal antibody 2-826-335 (produced by murine hybridoma cell line 2-826-335, ATCC PTA-8539) (antibody, mouse IgG1, V domains shown)
VH: QVQLKQSGPGLVQPSQSLSITCTVSGFSLTTYGIHWVRQSPGKGLEWLGVMWSGGDTDYDAAFISRLSISKDNSKSQVFFKMNSLQANDTGIYYCARYRFYGMDYWGQGTSVTVSS
VL: AIQMTQSSSSFSVSLGDRVTITCKASEDIYNRFAWYQQKPGNAPRLLISGAASLEAGVPSRFSGSGSGQDYTLSITSLQTEDVATYYCQQYWSTPWTFGGGTKLEIKR
notes: also called MAb826
In the case of B1, the RLU in experiment [7] was 624000 RLU; in experiment [8], 456000 RLU; in experiment [9], 329000 RLU.

B2: monoclonal antibody 1-255-713 (produced by murine hybridoma cell line 1-255-713, ATCC PTA-8536) (antibody, mouse IgG2a, V domains shown)
VH: QVHLQQSGAELMKPGASVKISCKATGYTFSSYWIEWVKQRPGHGLEWIGEILPGSVSNNFNEKFKDKATLTADPSSNTAYIQVSSLTSEDSAVYYCARSTGFYYGGNYFDHWGQGTTLAVSS
VL: DVVMTQTPLSLPVSPGDQASISCRSSQSLVHSNGHTYLHWYLQKPGQSPKLLIYKVSNRFSGVPDRVSGSGSGTDFTLKISRVEAEDLGVYFCSQSTHVPPTFGGGTKLEIKR
notes: also called MAb255
Consider B2, for which the RLU in experiment [10] turned out to be 57900 RLU; in experiment [11], 101000 RLU; in experiment [12], 42100 RLU; in [13], 42200 RLU; in experiment [14], 908000 RLU; in [15] it was 1.31e+06 RLU. Besides, the results for the RLU in experiment [16], in experiment [17] and in experiment [18] were 713000 RLU, 599000 RLU and 47200 RLU, respectively.

The values above are taken from US20100015637A1 (AbbVie / Abbott, published 2010).
